Measurements published in patent US20230051954A1 (published 2023).

T1: cynomolgus monkey (Macaca fascicularis) transferrin receptor 1 (cynomolgus monkey (Macaca fascicularis), UniProt Q5RDH6 89-760 (Pongo abelii entry), limits assumed)
T1 construct: Recombinant protein used in ELISA and SPR; also called cTfR1; cyno TfR1
T1 chain: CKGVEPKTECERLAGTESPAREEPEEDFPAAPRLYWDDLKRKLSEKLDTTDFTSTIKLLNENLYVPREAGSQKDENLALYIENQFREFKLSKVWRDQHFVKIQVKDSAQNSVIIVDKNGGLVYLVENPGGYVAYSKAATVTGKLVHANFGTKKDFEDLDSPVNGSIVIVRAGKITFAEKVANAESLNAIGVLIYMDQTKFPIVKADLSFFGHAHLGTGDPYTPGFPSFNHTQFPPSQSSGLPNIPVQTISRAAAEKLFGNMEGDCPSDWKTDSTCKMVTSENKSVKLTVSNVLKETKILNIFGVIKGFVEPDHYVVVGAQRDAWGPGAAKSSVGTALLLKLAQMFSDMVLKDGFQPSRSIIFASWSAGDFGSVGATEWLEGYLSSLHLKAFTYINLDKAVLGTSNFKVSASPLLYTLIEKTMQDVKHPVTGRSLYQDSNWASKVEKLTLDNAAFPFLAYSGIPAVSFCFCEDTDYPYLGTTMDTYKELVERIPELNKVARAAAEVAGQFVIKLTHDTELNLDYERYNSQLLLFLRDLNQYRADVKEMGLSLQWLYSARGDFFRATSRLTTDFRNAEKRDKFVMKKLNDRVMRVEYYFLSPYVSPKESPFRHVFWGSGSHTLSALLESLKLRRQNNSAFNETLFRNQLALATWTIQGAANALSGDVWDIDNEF


Legend:
[1] = molecular target: T2, recombinant human transferrin receptor 1 (human, UniProt P02786 89-760); assay: ELISA, DMPK oligo (ASO300) conjugate binding to hTfR1
T2 construct: Recombinant protein used in ELISA and SPR; also called hTfR1; huTfR1
T2 sequence (P02786 89-760 limits assumed): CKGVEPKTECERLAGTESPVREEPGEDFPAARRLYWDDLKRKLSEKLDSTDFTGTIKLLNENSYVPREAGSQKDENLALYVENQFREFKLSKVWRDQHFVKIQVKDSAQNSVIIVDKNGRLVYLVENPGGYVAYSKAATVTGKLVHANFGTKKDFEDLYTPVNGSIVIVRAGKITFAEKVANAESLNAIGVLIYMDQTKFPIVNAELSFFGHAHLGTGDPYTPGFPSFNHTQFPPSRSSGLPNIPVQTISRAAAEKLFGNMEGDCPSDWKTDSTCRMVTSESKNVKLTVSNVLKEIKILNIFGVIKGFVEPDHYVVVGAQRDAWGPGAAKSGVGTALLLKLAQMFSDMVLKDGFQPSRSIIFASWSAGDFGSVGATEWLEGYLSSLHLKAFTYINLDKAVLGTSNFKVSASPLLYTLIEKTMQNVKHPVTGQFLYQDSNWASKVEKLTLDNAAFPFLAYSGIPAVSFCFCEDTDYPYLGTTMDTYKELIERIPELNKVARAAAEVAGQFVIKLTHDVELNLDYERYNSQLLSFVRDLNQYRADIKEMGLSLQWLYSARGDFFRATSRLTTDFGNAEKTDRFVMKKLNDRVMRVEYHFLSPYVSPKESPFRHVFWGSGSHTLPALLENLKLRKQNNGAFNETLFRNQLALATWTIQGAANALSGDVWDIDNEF

[2] = molecular target: T1, cynomolgus monkey (Macaca fascicularis) …; assay: ELISA, DMPK oligo (ASO300) conjugate binding to cyno TfR1
[3] = molecular target: T1, cynomolgus monkey (Macaca fascicularis) …; assay: ELISA, plate-coated cyno TfR1, Fab-ASO300 conjugate; printed as 'Conjugate binding affinity ELISA'
[4] = molecular target: T2, recombinant human transferrin receptor 1; assay: ELISA, plate-coated human TfR1, Fab-ASO300 conjugate; printed as 'Conjugate binding affinity ELISA'

Binder | EC50 [1] | EC50 [2] | EC50 [3] | EC50 [4]
3M12 (VH3/Vk2) Fab conjugated to DMPK-targeting oligonucleotide ASO300 (Fab, V domains shown, Fab covalently conjugated to antisense oligonucleotide ASO300 (linker of Formula (C)); also called 3M12 (VH3/Vk2) conjugate; DMPK oligo conjugate) VH: QVQLQESGPGLVKPSQTLSLTCSVTGYSITSGYYWNWIRQPPGKGLEWMGYITFDGANNYNPSLKNRVSISRDTSKNQFSLKLSSVTAEDTATYYCTRSSYDYDVLDYWGQGTTVTVSS VL: DIQMTQSPSSLSASVGDRVTITCRASQDISNFLNWYQQKPGQPVKLLIYYTSRLHSGVPSRFSGSGSGTDFTLTISSLQPEDFATYFCQQGHTLPYTFGQGTKLEIKR | 1.14 nM | 2.26 nM | 2.9 nM | 2.2 nM
3M12 (VH4/Vk3) Fab conjugated to DMPK-targeting oligonucleotide ASO300 (Fab, V domains shown, Fab covalently conjugated to ASO300; also called 3M12 (VH4/Vk3) conjugate; DMPK oligo conjugate) VH: QVQLQESGPGLVKPSQTLSLTCTVTGYSITSGYYWNWIRQPPGKGLEWIGYITFDGANNYNPSLKNRVSISRDTSKNQFSLKLSSVTAEDTATYYCTRSSYDYDVLDYWGQGTTVTVSS VL: DIQMTQSPSSLSASVGDRVTITCRASQDISNFLNWYQQKPGQPVKLLIYYTSRLHSGVPSRFSGSGSGTDFTLTISSLQPEDFATYYCQQGHTLPYTFGQGTKLEIKR | 1.18 nM | 1.85 nM | 2.1 nM | 1.7 nM
5H12 (VH5-C33D/Vk4) Fab conjugated to DMPK-targeting oligonucleotide ASO300 (Fab, V domains shown, Fab covalently conjugated to ASO300; also called 5H12 (VH5-C33D/Vk4) conjugate) VH: QVQLVQSGAEVKKPGASVKVSCKASGYSFTDYDINWVRQAPGQGLEWMGWIYPGSGNTRYSERFKGRVTITRDTSASTAYMELSSLRSEDTAVYYCAREDYYPYHGMDYWGQGTLVTVSS VL: DIVMTQSPDSLAVSLGERATINCRASESVDGYDNSFMHWYQQKPGQPPKLLIFRASNLESGVPDRFSGSGSGTDFTLTISSLQAEDVAVYYCQQSSEDPWTFGQGTKLEIKR | 110 nM | 10.2 nM | 10.2 nM | 110 nM
5H12 (VH5-C33Y/Vk4) Fab conjugated to DMPK-targeting oligonucleotide ASO300 (Fab, V domains shown, Fab covalently conjugated to ASO300) VH: QVQLVQSGAEVKKPGASVKVSCKASGYSFTDYYINWVRQAPGQGLEWMGWIYPGSGNTRYSERFKGRVTITRDTSASTAYMELSSLRSEDTAVYYCAREDYYPYHGMDYWGQGTLVTVSS VL: DIVMTQSPDSLAVSLGERATINCRASESVDGYDNSFMHWYQQKPGQPPKLLIFRASNLESGVPDRFSGSGSGTDFTLTISSLQAEDVAVYYCQQSSEDPWTFGQGTKLEIKR | 13.9 nM | 13.9 nM |  | 23.7 nM
5H12 (VH5-C33Y/Vk3) Fab conjugated to DMPK-targeting oligonucleotide ASO300 (Fab, V domains shown, Fab covalently conjugated to ASO300; also called 5H12 (VH5-C33Y/Vk3) conjugate) VH: QVQLVQSGAEVKKPGASVKVSCKASGYSFTDYYINWVRQAPGQGLEWMGWIYPGSGNTRYSERFKGRVTITRDTSASTAYMELSSLRSEDTAVYYCAREDYYPYHGMDYWGQGTLVTVSS VL: DIVLTQSPDSLAVSLGERATINCRASESVDGYDNSFMHWYQQKPGQPPKLLIFRASNLESGVPDRFSGSGSRTDFTLTISSLQAEDVAVYYCQQSSEDPWTFGQGTKLEIKR |  |  | 2.3 nM | 33.4 nM
3A4 (VH3-N54S/Vk4) Fab conjugated to DMPK-targeting oligonucleotide ASO300 (Fab, V domains shown, Fab covalently conjugated to ASO300; also called 3A4 (VH3-N54S/Vk4) conjugate) VH: EVQLVQSGSELKKPGASVKVSCTASGFNIKDDYMYWVRQPPGKGLEWIGWIDPESGDTEYASKFQDRVTVTADTSTNTAYMELSSLRSEDTAVYYCTLWLRRGLDYWGQGTLVTVSS VL: DIVMTQSPLSLPVTPGEPASISCRSSKSLLHSNGYTYLFWFQQRPGQSPRLLIYRMSNLASGVPDRFSGSGSGTDFTLKISRVEAEDVGVYYCMQHLEYPFTFGGGTKVEIKR | 2.71 nM | 4.1 nM | 7.8 nM | 2.9 nM
3A4 (VH3-N54T/Vk4) Fab conjugated to DMPK-targeting oligonucleotide ASO300 (Fab, V domains shown, Fab covalently conjugated to ASO300; also called 3A4 (VH3-N54T/Vk4) conjugate) VH: EVQLVQSGSELKKPGASVKVSCTASGFNIKDDYMYWVRQPPGKGLEWIGWIDPETGDTEYASKFQDRVTVTADTSTNTAYMELSSLRSEDTAVYYCTLWLRRGLDYWGQGTLVTVSS VL: DIVMTQSPLSLPVTPGEPASISCRSSKSLLHSNGYTYLFWFQQRPGQSPRLLIYRMSNLASGVPDRFSGSGSGTDFTLKISRVEAEDVGVYYCMQHLEYPFTFGGGTKVEIKR |  | 5.12 nM | 4.7 nM | 2.8 nM
3A4 (VH3/Vk4) Fab conjugated to DMPK-targeting oligonucleotide ASO300 (Fab, V domains shown, Fab covalently conjugated to ASO300; also called 3A4 (VH3/Vk4) conjugate) VH: EVQLVQSGSELKKPGASVKVSCTASGFNIKDDYMYWVRQPPGKGLEWIGWIDPENGDTEYASKFQDRVTVTADTSTNTAYMELSSLRSEDTAVYYCTLWLRRGLDYWGQGTLVTVSS VL: DIVMTQSPLSLPVTPGEPASISCRSSKSLLHSNGYTYLFWFQQRPGQSPRLLIYRMSNLASGVPDRFSGSGSGTDFTLKISRVEAEDVGVYYCMQHLEYPFTFGGGTKVEIKR | 2.84 nM | 7.59 nM | 7.6 nM | 2.8 nM
